Test results from patent US20100202970A1.

Experiments:
[1] = biological target: PKC substrate C-terminally tagged with the yellow fluorescent protein YPet; assay: cell-based or functional assay
[2] = biological target: PKA substrate (modified Kemptide containing a consensus phosphorylation site for Protein Kinase A) C-terminally tagged with the yellow fluorescent protein YPet; assay: cell-based or functional assay

FHA1 (forkhead associated domain 1 of the yeast protein Rad53) tagged at its N-terminus with the cyan fluorescent protein Cerulean (from UniProt P22216 22-162)
increase in yellow/cyan emission ratio (intermolecular FRET) after PMA in 1205-Lu cells co-expressing both constructs [1]: 30% | increase in yellow/cyan emission ratio (intermolecular FRET) after Forskolin in 1205-Lu cells co-expressing both constructs [2]: 60%
